Holding throughout (assay): scFv ELISA
For orientation: In an ELISA, binding on a coated surface is turned into a signal by an enzyme label.

Assay [1] deals with Peptide 5: Biotin-…-[Tyr(PC)]-acid.
The target of assay [2] is Peptide 1: Biotin-…-[Tyr(PC)]-acid.
The target of assay [3] is BSA (UniProt P02769).
For assay [4], the target named is T1, Peptide 8: Biotin-AEAAAKEAAAKEAAAKEAAAKAAA-Tyr-acid (N-terminal biotin; C-terminal acid).
T1 construct: Control peptide without PC
T1 peptide: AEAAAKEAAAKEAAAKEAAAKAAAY
The method, boiled down: (§1)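 Bound scFv was read as OD450 after HRP–anti-V5 detection, TMB development and HCl stop. PPE with BSA was incubated 1 h at RT on BSA-blocked wells coated overnight at 4° C. with peptide, or on streptavidin wells loaded 1 h with biotinylated PC-peptides at 1 μg/mL.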

The target of assay [5] is T2, Peptide 4: Biotin-AGGGGSGGGGSGGGGSAAA-Tyr-acid (N-terminal biotin; C-terminal acid).
T2 construct: Control peptide without PC
T2 peptide: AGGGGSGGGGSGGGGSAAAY
The method, boiled down: as §1

Here are results for eleven molecules from patent US20250320312A1 (OXITOPE PHARMA B V, published 2025).

BSA, sequence (P02769 25-607 limits assumed): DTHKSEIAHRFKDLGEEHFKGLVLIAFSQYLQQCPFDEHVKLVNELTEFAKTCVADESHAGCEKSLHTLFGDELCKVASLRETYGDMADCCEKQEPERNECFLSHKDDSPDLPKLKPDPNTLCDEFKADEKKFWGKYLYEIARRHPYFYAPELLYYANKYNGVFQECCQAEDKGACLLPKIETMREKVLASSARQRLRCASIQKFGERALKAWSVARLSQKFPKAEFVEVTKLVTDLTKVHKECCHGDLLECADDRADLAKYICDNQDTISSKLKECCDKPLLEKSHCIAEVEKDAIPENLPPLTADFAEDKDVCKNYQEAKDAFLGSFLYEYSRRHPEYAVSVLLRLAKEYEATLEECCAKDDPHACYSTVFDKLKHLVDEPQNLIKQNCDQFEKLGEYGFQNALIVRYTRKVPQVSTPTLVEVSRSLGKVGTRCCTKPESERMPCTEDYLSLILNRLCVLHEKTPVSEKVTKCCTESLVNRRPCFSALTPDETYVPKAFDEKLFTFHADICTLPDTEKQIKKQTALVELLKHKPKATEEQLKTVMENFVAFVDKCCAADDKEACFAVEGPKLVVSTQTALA

B1: PcOxP_DB03_B09 (scFv, V domains shown)
VH: EVQLLESGGGLVQPGGSLRLSCAASGFTFSSYYMEWVRQAPGKGLEWVAASRNKANDYTTEYADSVKGRFTISRDNSKNTLYLQMNSLRAEDTAVYYCARDYYGSSYWYFDVWGQGTLVTVSS
VL: DIVMTQSPDSLAVSLGERATINCTASESLYSSKHKVHYLAWYQQKPGQPPKLLIYGAANRYIGVPDRFSGSGSGTDFTLTISSLQAEDVAVYYCAQFYSYPLTFGGGTKVEIK
notes: scFv in periplasmic extract
Turning to B1, the OD450 was 0.89 OD450 in assay [1]; 1.09 OD450 in assay [2]; 0.08 OD450 in assay [3]; 0.05 OD450 in assay [4]; 0.05 OD450 in assay [5].

B2: PcOxP_DB03_D02 (scFv, V domains shown)
VH: EVQLLESGGGLVQPGGSLRLSCAASGFTFSDYYMEWVRQAPGKGLEWVAASRNKANDYTTEYADSVKGRFTISRDNSKNTLYLQMNSLRAEDTAVYYCARDYYGSSYWYFDVWGQGTLVTVSS
VL: DIVMTQSPDSLAVSLGERATINCTASESLYSSKHKVHYLAWYQQKPGQPPKLLIYGATNRYIGVPDRFSGSGSGTDFTLTISSLQAEDVAVYYCAEFYSYPLTFGGGTKVEIK
notes: scFv in periplasmic extract
B2: the OD450 amounted to 1.37 OD450 in assay [1]; 0.67 OD450 in assay [2]; 0.09 OD450 in assay [3]; 0.04 OD450 in assay [4]; 0.05 OD450 in assay [5].

B3: PcOxP_DB03_D03 (scFv, V domains shown)
VH: EVQLLESGGGLVQPGGSLRLSCAASGFTFSDYYMEWVRQAPGKGLEWVAASRNKANDYTTEYADSVKGRFTISRDNSKNTLYLQMNSLRAEDTAVYYCARDYYFSSYWYFDVWGQGTLVTVSS
VL: DIVMTQSPDSLAVSLGERATINCTASESLYSSKHKVHYLAWYQQKPGQPPKLLIYGASNRYIGVPDRFSGSGSGTDFTLTISSLQAEDVAVYYCAQFYSYPLTFGGGTKVEIK
notes: scFv in periplasmic extract
As for B3, the OD450 in assay [1] was found to be 1.11 OD450; in assay [2], 0.73 OD450; in assay [3] it was 0.1 OD450; in assay [4], 0.04 OD450; in assay [5], 0.04 OD450.

B4: PcOxP_DB03_C08 (scFv, V domains shown)
VH: EVQLLESGGGLVQPGGSLRLSCAASGSTFSDFYMEWVRQAPGKGLEWVAASRNKANDFTTEYADSVKGRFTISRDNSKNTLYLQMNSLRAEDTAVYYCARDYYGSSYWYFDVWGQGTLVTVSS
VL: DIVMTQSPDSLAVSLGERATINCTASESLYSSKHKVHYLAWYQQKPGQPPKLLIYGASNRYSGVPDRFSGSGSGTDFTLTISSLQAEDVAVYYCAQFYHYPLTFGGGTKVEIK
notes: scFv in periplasmic extract
In the case of B4, the OD450 in assay [1] worked out at 0.9 OD450; in assay [2] it was 0.98 OD450; in assay [3], 0.06 OD450; in assay [4], 0.05 OD450; in assay [5], 0.05 OD450.

B5: PcOxP_DB03_C04 (scFv, V domains shown)
VH: EVQLLESGGGLVQPGGSLRLSCAASGFTFSDFYMEWVRQAPGKGLEWVAASRNKANDYTTEYADSVKGRFTISRDNSKNTLYLQMNSLRAEDTAVYYCARDYYGSSYWYNDVWGQGTLVTVSS
VL: DIVMTQSPDSLAVSLGERATINCTASESLYSSKHKVHYLAWYQQKPGQPPKLLIYGASNRYIGVPDRFSGSGSGTDFTLTISSLQAEDVAVYYCAQFYTYPLTFGGGTKVEIK
notes: scFv in periplasmic extract
As for B5, the OD450 came to 1.72 OD450 in assay [1]; 2.11 OD450 in assay [2]; 0.07 OD450 in assay [3]; 0.04 OD450 in assay [4]; 0.04 OD450 in assay [5].

B6: PcOxP_DB03_D10 (scFv, V domains shown)
VH: EVQLLESGGGLVQPGGSLRLSCAASGFTTSDFYMEWVRQAPGKGLEWVAASRNKANGYTTEYADSVKGRFTISRDNSKNTLYLQMNSLRAEDTAVYYCARDYYGSSYWYFDVWGQGTLVTVSS
VL: DIVMTQSPDSLAVSLGERATINCTASESLYSSKHKVHYLAWYQQKPGQPPKLLIYGASGRYIGVPDRFSGSGSGTDFTLTISSLQAEDVAVYYCAQFYSYPLTFGGGTKVEIK
notes: scFv in periplasmic extract
Turning to B6, the OD450 in assay [1] is 1.41 OD450; in assay [2], 1.19 OD450; in assay [3], 0.06 OD450; in assay [4], 0.06 OD450; in assay [5], 0.05 OD450.

B7: PcOxP_DB03_C01 (scFv, V domains shown)
VH: EVQLLESGGGLVQPGGSLRLSCAASGFTFSDFYMEWVRQAPGKGLEWVAASRNKANDYTTEVADSVKGRFTISRDNSKNTLYLQMNSLRAEDTAVYYCARDYYGSSNWYFDVWGQGTLVTVSS
VL: DIVMTQSPDSLAVSLGERATINCTASESLYSSKIKVHYLAWYQQKPGQPPKLLIYGAHNRYIGVPDRFSGSGSGTDFTLTISSLQAEDVAVYYCAQFYSYPLTFGGGTKVEIK
notes: scFv in periplasmic extract
On to B7, for which the OD450 in assay [1] came to 1.47 OD450; in assay [2] it was 0.84 OD450; in assay [3] it was 0.08 OD450; in assay [4] it was 0.05 OD450; in assay [5] it was 0.05 OD450.

B8: PcOxP_DB03_B11 (scFv, V domains shown)
VH: EVQLLESGGGLVQPGGSLRLSCAASGFTFSDFYVEWVRQAPGKGLEWVAASRNKANTYTTEYADSVKGRFTISRDNSKNTLYLQMNSLRAEDTAVYYCARDYYGSSYWYFDVWGQGTLVTVSS
VL: DIVMTQSPDSLAVSLGERATINCTASESLYSSKHKVHYLAWYQQKPGQPPKLLIYGAQNRYIGVPDRFSGSGSGTDFTLTISSLQAEDVAVYYCGQFYSYPLTFGGGTKVEIK
notes: scFv in periplasmic extract
Turning to B8, the OD450 in assay [1] was determined as 0.72 OD450; in assay [2], 0.5 OD450; in assay [3] it was 0.07 OD450; in assay [4], 0.05 OD450; in assay [5], 0.05 OD450.

B9: PcOxP_DB03_B10 (scFv, V domains shown)
VH: EVQLLESGGGLVQPGGSLRLSCAASGFTFSDYYMEWVRQAPGKGLEWVAASRNKANDYNTEYADSVKGRFTISRDNSKNTLYLQMNSLRAEDTAVYYCARDYYGSSYWYFDVWGQGTLVTVSS
VL: DIVMTQSPDSLAVSLGERATINCTASESLYSSKHKVHYLAWYQQKPGQPPKLLIYGASNRYIGVPDRFSGSGSGTDFTLTISSLQAEDVAVYYCAQFYSYPLTFGGGTKVEIK
notes: scFv in periplasmic extract
Turning to B9, the OD450 in assay [1] was found to be 0.71 OD450; in assay [2], 0.41 OD450; in assay [3] it was 0.08 OD450; in assay [4], 0.05 OD450; in assay [5], 0.05 OD450.

B10: PcOxP_DB03_C10 (scFv, V domains shown)
VH: EVQLLESGGGLVQPGGSLRLSCAASGFTFSSYYMEWVRQAPGKGLEWVAASRNKANEYTTEYADSVKGRFTISRDNSKNTLYLQMNSLRAEDTAVYYCARDYYGSSYWYFDVWGQGTLVTVSS
VL: DIVMTQSPDSLAVSLGERATINCTASESLYSSKHKVHYLAWYQQKPGQPPKLLIYGAGNRYIGVPDRFSGSGSGTDFTLTISSLQAEDVAVYYCAQFYSYPLTFGGGTKVEIK
notes: scFv in periplasmic extract
With B10, the OD450 in assay [1] was determined as 1.1 OD450; in assay [2], 1.1 OD450; in assay [3] it was 0.07 OD450; in assay [4] it was 0.04 OD450; in assay [5], 0.05 OD450.

B11: PcOxP_DB03_B12 (scFv, V domains shown)
VH: EVQLLESGGGLVQPGGSLRLSCAASGFQFSDFYMEWVRQAPGKGLEWVAASRWKANDYTTEYADSVKGRFTISRDNSKNTLYLQMNSLRAEDTAVYYCARDYYGSSYWYFDVWGQGTLVTVSS
VL: DIVMTQSPDSLAVSLGERATINCTASESLYSSKHKVHYLAWYQQKPGQPPKLLIYGASNRYIGVPDRFSGSGSGTDFTLTISSLQAEDVAVYYCAQFYSYPLTFGGGTKVEIK
notes: scFv in periplasmic extract
Consider B11, for which the OD450 in assay [1] turned out to be 0.85 OD450; in assay [2], 1.21 OD450; in assay [3], 0.06 OD450; in assay [4], 0.05 OD450; in assay [5] it was 0.05 OD450.
